Data from patent US20150299797A1, “COMPOSITIONS AND METHODS RELATING TO BLOOD-BASED BIOMARKERS OF BREAST CANCER” (UNIVERSITY OF UTAH RESEARCH FOUNDATION, priority 2012, published 2015).
Entries after “also recorded” stand apart in the source; their conditions may differ.

Tested on: normal mammary epithelial cells from high-risk (HBC) women or control women
Assay: Drug response assay (CellTiter-Glo cell viability, dose-response)
Format: cell-based, human
Conditions: HBC/high-risk vs control, viability after 96 hours, TRAIL p-value<0.001
Experimental: Normal mammary epithelial cells isolated from either high-risk women undergoing prophylactic mastectomy or control women with no family history of breast cancer undergoing breast-reduction surgery for non-cancer related health issues were isolated, and single-cell suspensions were generated. 1500 cells/well for each patient samples were plated in 40 microliters of MEBM basal media supplemented with a MEGM Bulletkit [Lonza] in half-well 96-well plates [Nunc] in triplicate for each drug dose. After 24 hours, TRAIL, Afatinib, Gefitinib, and EGF were added. The indicated doses were chosen within the average linear range of drug effect: TRAIL (0.1 ng/mL-5.0 ng/ml), Afatinib (10 nM-[…]), Gefitinib (0.001 mM-0.5 mM), EGF (5 ng/mL-500 ng/mL) [Millipore (TRAIL) and Selleckchem]. A BIOMEK 3000 (Beckman Coulter, Brea, Calif., USA) robot was used to seed the cells and dispense the drugs. After 96 hours, cell viability was quantified using the CellTiter-Glo Luminescent Cell Viability Assay [Promega]. The proportion of viable cells was calculated for each dosage by comparing against cell counts for non-treated cells. A summary value was calculated for each cell line as the slope of a linear-regression line fitted to the cell-count proportions.

B1: TRAIL: TNF-related apoptosis inducing ligand (TRAIL), from Millipore (protein, UniProt P50591 1-281, looked up)
Tumor necrosis factor ligand …: MAMMEVQGGPSLGQTCVLIVIFTVLLQSLCVAVTYVYFTNELKQMQDKYSKSGIACFLKEDDSYWDPNDEESMNSPCWQVKWQLRQLVRKMILRTSEETISTVQEKQQNISPLVRERGPQRVAAHITGTRGRSNTLSSPNSKNEKALGRKINSWESSRSGHSFLSNLHLRNGELVIHEKGFYYIYSQTYFRFQEEIKENTKNDKQMVQYIYKYTSYPDPILLMKSARNSCWSKDAEYGLYSIYQGGIFELKENDRIFVSVTNEHLIDMDHEASFFGAFLVG
response of primary breast cells of HBC women compared to controls (proportion of viable cells, slope of fitted dose-response): significantly increased response; also recorded: significantly more responsive
